From patent publication US10125358B2, “Methods and compounds for increasing threonyl-tRNA synthetase activity” (UNIVERSITY OF VERMONT AND STATE AGRICULTURAL COLLEGE, priority 2012, dated 2018)
“Also recorded” adds a separate entry of the source.

What was measured:
TARS [1] = target: T1, TARS (Homo sapiens, UniProt P26639); assay: GTPase (GTP hydrolysis) assay; format: biochemical; set-up: His6 (N); made in house; host or cells: E. coli Rosetta 2 (DE3)pLysS, plasmid pET28a hctThrRS
T1 sequence (P26639 1-723): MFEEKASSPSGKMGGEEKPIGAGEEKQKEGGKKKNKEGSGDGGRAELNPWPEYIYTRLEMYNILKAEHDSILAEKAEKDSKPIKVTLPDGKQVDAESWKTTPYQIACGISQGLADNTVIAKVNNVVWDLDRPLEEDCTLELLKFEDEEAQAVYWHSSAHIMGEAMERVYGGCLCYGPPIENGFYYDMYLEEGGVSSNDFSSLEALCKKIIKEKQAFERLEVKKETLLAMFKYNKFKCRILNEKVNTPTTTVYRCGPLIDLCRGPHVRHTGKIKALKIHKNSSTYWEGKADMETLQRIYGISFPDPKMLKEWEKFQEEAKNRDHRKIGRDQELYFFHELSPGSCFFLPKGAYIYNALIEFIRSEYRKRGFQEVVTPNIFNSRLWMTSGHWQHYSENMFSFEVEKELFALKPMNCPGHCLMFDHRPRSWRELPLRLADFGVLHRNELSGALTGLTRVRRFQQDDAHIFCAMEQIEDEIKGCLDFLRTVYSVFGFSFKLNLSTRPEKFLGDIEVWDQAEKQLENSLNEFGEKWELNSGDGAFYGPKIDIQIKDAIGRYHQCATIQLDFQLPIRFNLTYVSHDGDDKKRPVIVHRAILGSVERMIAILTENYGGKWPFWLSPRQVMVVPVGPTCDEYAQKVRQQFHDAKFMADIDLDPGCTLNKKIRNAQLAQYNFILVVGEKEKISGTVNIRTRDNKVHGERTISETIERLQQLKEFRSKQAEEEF

HUVECs = assay: Quantitative RT-PCR of TARS mRNA; format: cell-based, human; details: HUVECs exposed to 50 ng/ml
Protocol: Total RNA was extracted from cells using the RNeasy column protocol and cDNA was generated using an Omniscript reverse transcriptase assay according to the manufacturer's instructions (Qiagen, Frederick, Md.). Primers and probes for TARS and β2-microglobulin were Assays-on-Demand (Applied Biosystems, [Life Technologies, Carlsbad, Calif.]). RT-qPCR was performed using an ABI prism 7700 Sequence Detection System (Applied Biosystems). The relative quantity of mRNA level was determined using the comparative CT (ΔΔCT) method using β2-microglobulin to normalize mRNA level (Cassavaugh, Hale et al. 2011).

[2] = test system: chorioallantoic membrane (CAM) of chicken embryos; assay: Chick chorioallantoic membrane (CAM) assay; format: in vivo; details: for CAM vessel formation / vascularity, effect of applied synthetase: purified protein applied daily to gelfoam sponge, 72 h
Protocol: Chick Chorioallantoic Membrane Assay—
Fertilized chicken eggs (Sunrise Farms, Catskill, N.Y.) day 1-2 post-laying were incubated in a humidified incubator at 37° C. for 72 h. Cleaned eggs were cracked and plated in a sterile 10 cm^2 tissue culture-treated dish and incubated at 37° C. for another 7 days. On developmental day 10, 1 mm^3 sterile gelatin sponge pieces (Surgifoam®; Johnson & Johnson Wound Management, Somerville, N.J.) were placed within the outer one-third of the membrane between large vessels. […] All compounds were applied in 10 μl to the CAM every 24 h for 72 h. Images were taken using a Leica MZ6 stereomicroscope every 24 h. Compounds were scored according to a modified version of Intensity Scoring as previously described (Ribatti, Nico et al. 2006). Briefly, each experimental condition was given a blinded score from 0-5 based on the change in the extent of vessel convergence and formation in proximity to the sponge from day 0 to day 3. Total score is averaged individual experimental condition scores from at least 15 replicates.
Fertilized chicken embryos were cultured ex-ova and, starting at developmental day 10, agents were applied daily to gelfoam sponges on the CAM. Images were recorded daily over 72 h and scored blindly according to a modified version Intensity Scoring as previously described (Ribatti, Nico et al. 2006). Additional details regarding methods are provided in the Methods and Materials section of Example 1.

tRNAThr = assay: Steady state aminoacylation assay; format: biochemical, E. coli or human; details: purified recombinant protein
Protocol: Steady State Aminoacylation Assay—
The aminoacylation activities of the TARS constructs were determined using modifications to established procedures (Francklyn et al 2008). Briefly, reaction mixtures consisted of 20 mM Tris-HCl pH 8.0, 100 mM KCl, 10 mM MgCl2, 1 mM dithiothreitol, 2 mM ATP, 2.5 U pyrophosphatase (Roche), 80 μM threonine, 20 μM [14C]-threonine, and 5 μM of E. coli or human tRNAThr. Reactions were initiated with the addition of 0.25-0.75 μM TARS and run at 37° C. Aliquots were taken at varying time points and spotted onto Whatmann 3MM paper filters pre-soaked in 5% trichloroacetic acid (TCA). Upon completion, the filters were washed 3 times in excess TCA, once in 95% ethanol, and dried under a heating lamp. The formation of Thr-tRNAThr was detected by scintillation counter and the activity determined by linear regression of threonyl-tRNAThr formed per active site per unit time.

TARS [3] = target: T1, TARS; assay: Ap4G formation assay (TLC, [α-32P]-GTP); format: biochemical; set-up: His6 (N); made in house; host or cells: E. coli Rosetta 2 (DE3)pLysS, plasmid pET28a hctThrRS; details: 2 mM ATP, 2 mM threonine, 2 mM GTP
TARS [4] = target: T1, TARS; assay: Ap4A formation assay (TLC, [α-32P]-ATP); format: biochemical; set-up: His6 (N); made in house; host or cells: E. coli Rosetta 2 (DE3)pLysS, plasmid pET28a hctThrRS; details: 5 μM enzyme, 2 mM threonine, 2 mM ATP
[5] = substrate added to GTPase reaction

Nc1ncnc2c1ncn2[C@@H]1O[C@H](COP(=O)(O)OP(=O)(O)OP(=O)(O)O)[C@@H](O)[C@H]1O [ATP]
decrease in TARS GTPase activity (TARS [1]; [5]): 77%

C[C@@H](O)[C@H](N)C(=O)O [threonine]
increase in TARS GTPase activity (TARS [1]; [5]): 26%

TNF-α
TARS mRNA level (HUVECs): neither VEGF nor TNF-α induced an increase; also recorded: do not induce TARS transcription

VEGF
TARS mRNA level (HUVECs): neither VEGF nor TNF-α induced an increase; also recorded: do not induce TARS transcription

B1: L567V TARS: BC194-resistant (borrelidin-resistant) L567V mutant of human TARS (protein, listed as Homo sapiens)
chain: MFEEKASSPSGKMGGEEKPIGAGEEKQKEGGKKKNKEGSGDGGRAELNPWPEYIYTRLEMYNILKAEHDSILAEKAEKDSKPIKVTLPDGKQVDAESWKTTPYQIACGISQGLADNTVIAKVNNVVWDLDRPLEEDCTLELLKFEDEEAQAVYWHSSAHIMGEAMERVYGGCLCYGPPIENGFYYDMYLEEGGVSSNDFSSLEALCKKIIKEKQAFERLEVKKETLLAMFKYNKFKCRILNEKVNTPTTTVYRCGPLIDLCRGPHVRHTGKIKALKIHKNSSTYWEGKADMETLQRIYGISFPDPKMLKEWEKFQEEAKNRDHRKIGRDQELYFFHELSPGSCFFLPKGAYIYNALIEFIRSEYRKRGFQEVVTPNIFNSRLWMTSGHWQHYSENMFSFEVEKELFALKPMNCPGHCLMFDHRPRSWRELPLRLADFGVLHRNELSGALTGLTRVRRFQQDDAHIFCAMEQIEDEIKGCLDFLRTVYSVFGFSFKLNLSTRPEKFLGDIEVWDQAEKQLENSLNEFGEKWELNSGDGAFYGPKIDIQIKDAIGRYHQCATIQLDFQVPIRFNLTYVSHDGDDKKRPVIVHRAILGSVERMIAILTENYGGKWPFWLSPRQVMVVPVGPTCDEYAQKVRQQFHDAKFMADIDLDPGCTLNKKIRNAQLAQYNFILVVGEKEKISGTVNIRTRDNKVHGERTISETIERLQQLKEFRSKQAEEEF
sensitivity of synthetase-induced CAM angiogenesis to BC194 ([2]; protein plus BC194 applied to CAM): not inhibited
CAM vessel formation / vascularity, effect of applied synthetase [2]: stimulated vessel formation
aminoacylation activity (tRNAThr): not compromised

B2: R442A TARS: aminoacylation-deficient human TARS mutant; essential catalytic arginine 442 exchanged for alanine (protein, listed as Homo sapiens)
chain: MFEEKASSPSGKMGGEEKPIGAGEEKQKEGGKKKNKEGSGDGGRAELNPWPEYIYTRLEMYNILKAEHDSILAEKAEKDSKPIKVTLPDGKQVDAESWKTTPYQIACGISQGLADNTVIAKVNNVVWDLDRPLEEDCTLELLKFEDEEAQAVYWHSSAHIMGEAMERVYGGCLCYGPPIENGFYYDMYLEEGGVSSNDFSSLEALCKKIIKEKQAFERLEVKKETLLAMFKYNKFKCRILNEKVNTPTTTVYRCGPLIDLCRGPHVRHTGKIKALKIHKNSSTYWEGKADMETLQRIYGISFPDPKMLKEWEKFQEEAKNRDHRKIGRDQELYFFHELSPGSCFFLPKGAYIYNALIEFIRSEYRKRGFQEVVTPNIFNSRLWMTSGHWQHYSENMFSFEVEKELFALKPMNCPGHCLMFDHRPRSWRELPLRLADFGVLHANELSGALTGLTRVRRFQQDDAHIFCAMEQIEDEIKGCLDFLRTVYSVFGFSFKLNLSTRPEKFLGDIEVWDQAEKQLENSLNEFGEKWELNSGDGAFYGPKIDIQIKDAIGRYHQCATIQLDFQLPIRFNLTYVSHDGDDKKRPVIVHRAILGSVERMIAILTENYGGKWPFWLSPRQVMVVPVGPTCDEYAQKVRQQFHDAKFMADIDLDPGCTLNKKIRNAQLAQYNFILVVGEKEKISGTVNIRTRDNKVHGERTISETIERLQQLKEFRSKQAEEEF
Ap4G formation rate (TARS [3]): not catalyzed; also recorded: blocked
CAM vessel formation / vascularity, effect of applied synthetase [2]: virtually indistinguishable from wild type
Ap4A production rate (TARS [4]): no appreciable activity; also recorded: blocked
aminoacylation activity (tRNAThr): essentially no aminoacylation activity; also recorded: virtually negligible aminoacylation function

B3: E. coli ThrRS: bacterial (E. coli) threonyl-tRNA synthetase (protein, UniProt P0A8M3 1-642, looked up)
Threonine--tRNA ligase: MPVITLPDGSQRHYDHAVSPMDVALDIGPGLAKACIAGRVNGELVDACDLIENDAQLSIITAKDEEGLEIIRHSCAHLLGHAIKQLWPHTKMAIGPVIDNGFYYDVDLDRTLTQEDVEALEKRMHELAEKNYDVIKKKVSWHEARETFANRGESYKVSILDENIAHDDKPGLYFHEEYVDMCRGPHVPNMRFCHHFKLMKTAGAYWRGDSNNKMLQRIYGTAWADKKALNAYLQRLEEAAKRDHRKIGKQLDLYHMQEEAPGMVFWHNDGWTIFRELEVFVRSKLKEYQYQEVKGPFMMDRVLWEKTGHWDNYKDAMFTTSSENREYCIKPMNCPGHVQIFNQGLKSYRDLPLRMAEFGSCHRNEPSGSLHGLMRVRGFTQDDAHIFCTEEQIRDEVNGCIRLVYDMYSTFGFEKIVVKLSTRPEKRIGSDEMWDRAEADLAVALEENNIPFEYQLGEGAFYGPKIEFTLYDCLDRAWQCGTVQLDFSLPSRLSASYVGEDNERKVPVMIHRAILGSMERFIGILTEEFAGFFPTWLAPVQVVIMNITDSQSEYVNELTQKLSNAGIRVKADLRNEKIGFKIREHTLRRVPYMLVCGDKEVESGKVAVRTRRGKDLGSMDVNEVIEKLQQEIRSRSLKQLEE
Ap4G formation rate (TARS [3]): 0.5612 Ap4G/active site/min
Ap4A production rate (TARS [4]): 0.5612 Ap4A/active site/min
GTP hydrolysis rate (TARS [1]; 2 mM GTP): not
